US20240254246A1 (PROMETHEUS BIOSCIENCES, published 2024)

What was measured:
[1] = target: T1, cynomolgus CD30L expressed on cells (cynomolgus, UniProt A0A7N9CVX7 1-234); assay: flow cytometry, blocking of CD30-Fc binding to cyno CD30L on cells; reference Ref1
T1 construct: whole, on cells; also called cyCD30L; HEK293-cyCD30L
T1 sequence: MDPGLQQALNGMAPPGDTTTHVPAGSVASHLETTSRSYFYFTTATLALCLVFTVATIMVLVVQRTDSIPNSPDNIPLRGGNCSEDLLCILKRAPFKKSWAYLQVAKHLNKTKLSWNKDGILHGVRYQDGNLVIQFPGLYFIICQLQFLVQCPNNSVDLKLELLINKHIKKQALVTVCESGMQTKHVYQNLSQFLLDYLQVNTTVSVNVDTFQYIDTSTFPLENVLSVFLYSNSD

[2] = target: T2, human CD30L expressed on cells (human, UniProt P32971 1-234); assay: flow cytometry, blocking of CD30-Fc binding to human CD30L on cells; reference Ref1
T2 construct: also called huCD30L; B16-huCD30L
T2 sequence: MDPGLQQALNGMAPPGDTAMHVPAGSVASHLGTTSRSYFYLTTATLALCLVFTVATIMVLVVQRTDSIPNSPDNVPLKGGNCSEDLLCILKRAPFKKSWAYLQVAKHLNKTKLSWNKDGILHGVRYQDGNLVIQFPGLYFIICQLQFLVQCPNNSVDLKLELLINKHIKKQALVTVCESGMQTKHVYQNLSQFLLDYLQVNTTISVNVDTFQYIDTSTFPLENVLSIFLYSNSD

CDH13 = target: T3, CDH13 (human, UniProt P55290 139-693); assay: cell microarray, library and confirmation screens
T3 construct: whole, on cells; also called hit #16
T3 sequence (looked up): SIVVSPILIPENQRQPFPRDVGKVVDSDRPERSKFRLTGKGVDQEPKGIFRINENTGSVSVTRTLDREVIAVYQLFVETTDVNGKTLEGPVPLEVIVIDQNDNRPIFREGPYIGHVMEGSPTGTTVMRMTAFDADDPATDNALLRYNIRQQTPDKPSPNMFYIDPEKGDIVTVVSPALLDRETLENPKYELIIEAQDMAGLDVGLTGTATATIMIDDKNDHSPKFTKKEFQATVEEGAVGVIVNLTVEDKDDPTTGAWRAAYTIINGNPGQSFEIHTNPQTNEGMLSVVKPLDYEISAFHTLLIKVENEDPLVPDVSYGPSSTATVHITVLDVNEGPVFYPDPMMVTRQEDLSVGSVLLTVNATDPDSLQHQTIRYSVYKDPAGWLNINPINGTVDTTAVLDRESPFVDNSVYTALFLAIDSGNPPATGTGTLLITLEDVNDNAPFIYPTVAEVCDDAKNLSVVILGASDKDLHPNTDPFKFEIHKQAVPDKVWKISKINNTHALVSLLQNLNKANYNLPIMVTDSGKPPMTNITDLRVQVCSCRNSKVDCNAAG

[3] = target: T4, recombinant human CD30L protein (human, UniProt P32971 63-234); assay: KinExA, Fab, human CD30L; reference Fab of Ref1
T4 construct: also called rhCD30L; huCD30L (ELISA)
T4 sequence (looked up): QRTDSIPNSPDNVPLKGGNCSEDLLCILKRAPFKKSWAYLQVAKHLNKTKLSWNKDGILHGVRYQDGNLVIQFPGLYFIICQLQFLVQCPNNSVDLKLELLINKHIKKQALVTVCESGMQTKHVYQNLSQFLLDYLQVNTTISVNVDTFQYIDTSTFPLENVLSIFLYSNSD
Description: (§1) For each experiment, CD30L antigen is titrated in a background of the Fab and allowed to reach equilibrium. The solutions are then briefly exposed to the solid phase and a portion of free Fab is captured. The captured Fab is then labeled with a fluorescent secondary molecule. The short contact time with the solid phase is less than the time needed for dissociation of the pre-formed complex in solution, thus competition between the solution and the solid phase titrated binding partner is kinetically excluded.
(§2) The signals generated from the captured Fab, which are directly proportional to the concentration of free Fab in the equilibrated samples, are used to determine the KD value. The KinExA Pro software performs a least squares analysis on the measured data to fit optimal solution for the KD and the activity of the Fab to a curve representative of a 1:1 reversible bi-molecular interaction.

recombinant human CD30L [4] = target: T5, recombinant human CD30L (human, UniProt P32971 63-234); assay: KinExA, Fab in solution
T5 construct: Purified recombinant protein of ELISA, BLI, Carterra and KinExA; also called rhCD30L; huCD30L
T5 sequence (looked up): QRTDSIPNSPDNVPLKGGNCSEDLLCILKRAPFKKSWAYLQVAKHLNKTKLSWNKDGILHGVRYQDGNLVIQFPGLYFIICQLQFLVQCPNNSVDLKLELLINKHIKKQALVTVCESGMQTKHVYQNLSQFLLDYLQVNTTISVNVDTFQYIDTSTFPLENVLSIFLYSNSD
Description: as §1, §2

recombinant human CD30L [5] = target: T5, recombinant human CD30L; assay: KinExA, calculated as KD x kon
Protocol: To more precisely define and compare the binding affinities (dissociation equilibrium constant, KD), the association rate constant (on rate, kₒₙ), and the dissociation rate constant (off rate, koff), the kinetic exclusion assay (KinExA) was performed. KinExA measures the equilibrium binding affinity and kinetics between unmodified binding molecules in solution. For affinity analysis, the equilibrium dissociation constant, KD, is experimentally determined and reflects the strength of the binding interaction. The rate of association, kₒₙ, is also experimentally determined, while the rate of dissociation, koff, is calculated based on the equation: koff=Kd×kₒₙ.

B1: anti-CD30L antibody clone 2 germlined with IgG1 constant region SEQ ID NO: 502 (antibody)
heavy: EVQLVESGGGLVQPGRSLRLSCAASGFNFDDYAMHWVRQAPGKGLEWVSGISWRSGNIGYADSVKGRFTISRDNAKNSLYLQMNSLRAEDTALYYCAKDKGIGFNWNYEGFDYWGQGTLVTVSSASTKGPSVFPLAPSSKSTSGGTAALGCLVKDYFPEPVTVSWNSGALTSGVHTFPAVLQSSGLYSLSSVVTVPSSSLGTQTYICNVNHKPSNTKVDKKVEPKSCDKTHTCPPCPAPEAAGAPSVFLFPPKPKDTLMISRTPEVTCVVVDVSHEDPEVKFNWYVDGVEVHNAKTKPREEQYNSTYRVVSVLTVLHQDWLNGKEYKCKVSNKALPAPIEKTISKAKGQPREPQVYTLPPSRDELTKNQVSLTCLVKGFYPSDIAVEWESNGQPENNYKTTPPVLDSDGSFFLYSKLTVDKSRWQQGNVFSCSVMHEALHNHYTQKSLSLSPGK
VL: DIQMTQSPSSLSASVGDRVTITCRASQGISNHLAWFQQKPGKAPKSLIYAASSLQSGVPSRFSGSGSGTDFTLTISSLQPEDFATYYCQQYVTYPLTFGGGTKVEIK
notes: also called germlined clone 2; copies: 2 + 2
- fold better IC50 than reference 1 (ref1) anti-CD30L [1]: 2.13 fold
- fold better IC50 than reference 1 (ref1) anti-CD30L [2]: 2.74 fold
- binding result (CDH13): no binding (tested: 5 µg/mL)

B2: Fab of clone 2 germlined (Fab, V domains shown)
VH: EVQLVESGGGLVQPGRSLRLSCAASGFNFDDYAMHWVRQAPGKGLEWVSGISWRSGNIGYADSVKGRFTISRDNAKNSLYLQMNSLRAEDTALYYCAKDKGIGFNWNYEGFDYWGQGTLVTVSS
VL: DIQMTQSPSSLSASVGDRVTITCRASQGISNHLAWFQQKPGKAPKSLIYAASSLQSGVPSRFSGSGSGTDFTLTISSLQPEDFATYYCQQYVTYPLTFGGGTKVEIK
notes: Fab used in KinExA; also called Fab of a representative anti-CD30L, clone 2 germlined
- fold difference in KD against the reference 1 anti-CD30L [3]: 4.2 fold

B3: Fab of the reference 1 (ref1) anti-CD30L (Fab, V domains shown)
VH: QVQLQESGPGLVKPSETLSLTCTVSGGSISSYIWSWIRQPAGKGLEWIGRIYASGNTNYNPSLKSRVTISVDTSKNQFSLKLSSMTAADTAVYYCARDYRVAGTYYYYYGLDVWGQGTTVTVSS
VL: QSALTQPASVSGSPGQSITISCTGTSSDVGVYDYVSWYQQHPGKAPKLMIYEVSNRPSGVSNRFSGSKSGNTASLTISGLQTEDEADYYCSSYTSRSTWVFGGGTKLTVL
notes: Fab
- Kd (recombinant human CD30L [4]): 0.377 nM
- kon (recombinant human CD30L [4]): 937000 M⁻¹ s⁻¹
- koff (recombinant human CD30L [5]): 0.000353 s⁻¹
